Test results: patent US20040131612A1 (APPLIED MOLECULAR EVOLUTION, published 2004)
Where “and” joins values, the source holds several entries; their conditions need not be identical. Equal values may be shown once.

Tests used:
human TNF-α [1] = target: T1, human TNF-α (human, UniProt P01375 77-233); assay: calculated from Kd = koff/kon (KinExA data)
T1 construct: It was biotinylated in the filter lift and on-rate ELISA; also called hTNF-α; hTNF
Experimental: Next, binding kinetics of three of the Fab fragments described in Table 4 were determined in a kinetic exclusion assay. Affinity measurements were performed on a KinExA™3000 instrument (Sapidyne Instruments, Inc., Boise, Id.) using Fab fragments (A10K, A9K, and A10P) released from the periplasmic space whose concentration was determined by a quantitative ELISA. Briefly, antigen and antibody fragment were allowed to react in solution and the fraction of unbound reagent was determined by capture and measured on a bead support. Binding kinetics can be determined or calculated from the amount of unbound reagent. For instance, after interaction between TNF-α and a Fab fragment has occurred in solution, binding of the unreacted, free Fab fragment to TNF-α coated beads can be measured on the instrument by detection with a labeled secondary antibody to the Fab fragment (e.g., a goat anti-IgG (heavy and light)). […] After the incubation, the amount of unbound Fab in the equilibrated samples was determined on the KinExA™3000 instrument according to the manufacturer's instructions. Kd values were determined by the instrument software.
To measure kₒₙ, individual Fab fragments at a concentration of 40 pM were mixed with 400 pM of hTNF-α. […] The resulting data was used to calculate the kₒₙ with the instrument software. koff was calculated by using the formula Kd=koff/kₒₙ.

human TNF-α [2] = target: T1, human TNF-α; assay: kinetic exclusion assay (KinExA 3000), 40 pM Fab mixed with 400 pM hTNF-α, time course
Experimental: To measure kₒₙ, individual Fab fragments at a concentration of 40 pM were mixed with 400 pM of hTNF-α. A series of measurements were taken over a time course. The resulting data was used to calculate the kₒₙ with the instrument software. koff was calculated by using the formula Kd=koff/kₒₙ.

human TNF-α [3] = target: T1, human TNF-α; assay: cell-based or functional assay
human TNF-α [4] = target: T1, human TNF-α; assay: kinetic exclusion assay (KinExA 3000), Fab in solution with human TNF-α; lower end of the range
Experimental: (§1) Next, binding kinetics of three of the Fab fragments described in Table 4 were determined in a kinetic exclusion assay. Affinity measurements were performed on a KinExA™3000 instrument (Sapidyne Instruments, Inc., Boise, Id.) using Fab fragments (A10K, A9K, and A10P) released from the periplasmic space whose concentration was determined by a quantitative ELISA. Briefly, antigen and antibody fragment were allowed to react in solution and the fraction of unbound reagent was determined by capture and measured on a bead support. Binding kinetics can be determined or calculated from the amount of unbound reagent. For instance, after interaction between TNF-α and a Fab fragment has occurred in solution, binding of the unreacted, free Fab fragment to TNF-α coated beads can be measured on the instrument by detection with a labeled secondary antibody to the Fab fragment (e.g., a goat anti-IgG (heavy and light)). […] A total of 13 tubes were used for each Kd determination. For A10K and A10P, the Fab concentration was 10 pM with the human TNF-α concentration beginning at 160 pM and then serially diluted to 0.078 pM with the final tube containing no human TNF-α. […] After the incubation, the amount of unbound Fab in the equilibrated samples was determined on the KinExA™3000 instrument according to the manufacturer's instructions. Kd values were determined by the instrument software.

human TNF-α [5] = target: T1, human TNF-α; assay: kinetic exclusion assay (KinExA 3000), Fab in solution with human TNF-α; upper end of the range
Experimental: as §1

T1 sequence (P01375 77-233 limits assumed): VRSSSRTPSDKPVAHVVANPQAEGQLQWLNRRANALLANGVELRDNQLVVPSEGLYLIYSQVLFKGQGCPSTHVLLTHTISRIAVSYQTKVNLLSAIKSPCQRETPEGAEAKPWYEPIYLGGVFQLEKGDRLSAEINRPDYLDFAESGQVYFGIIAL

Row | Binder | koff (human TNF-α [1]) | kon (human TNF-α [2]) | L929 cell protection assay (prevention of TNF-α-mediated cell death), EC50 (human TNF-α [3]) [nM] | L929 cell protection assay, EC50 (human TNF-α [3]) [nM] | Kd (human TNF-α [4]) [nM] | Kd (human TNF-α [5]) [nM]
1 | A10K Fab fragment (Fab, V domains shown, Fab released from the E. coli periplasm; Against hu1: light chain S31Y, M55R) VH: EVQLVESGGGLVQPGGSLRLSCAASGFKFSNHWMNWVRQAPGKGLEWVGEIRSKSMNSATHYAESVKGRFTISRDDSKNSLYLQMNSLKTEDTAVYYCARNYYGSTYDHWGQGTLVTVSS VL: EIVLTQSPDFQSVTPKEKVTITCRASQFVGYSIHWYQQKPDQSPKLLIKYASESRSGVPSRFSGSGSGTDFTLTINSLEAEDAATYYCQQSHSWHFTFGQGTKVEIK | 1.96e-05 s⁻¹ and 3.76e-05 s⁻¹ | 3.92e+06 M⁻¹ s⁻¹ and 7.51e+06 M⁻¹ s⁻¹ | ~0.025 | ~0.067 | ≥ 0.0035 | ≤ 0.0072
2 | A10K IgG (antibody, V domains shown) VH: EVQLVESGGGLVQPGGSLRLSCAASGFKFSNHWMNWVRQAPGKGLEWVGEIRSKSMNSATHYAESVKGRFTISRDDSKNSLYLQMNSLKTEDTAVYYCARNYYGSTYDHWGQGTLVTVSS VL: EIVLTQSPDFQSVTPKEKVTITCRASQFVGYSIHWYQQKPDQSPKLLIKYASESRSGVPSRFSGSGSGTDFTLTINSLEAEDAATYYCQQSHSWHFTFGQGTKVEIK |  |  |  | ~0.0027 |  | 
